In the supplement of paper PMC5998384:

What was measured:
HeLa Kyoto [1] = experiment: thermal stability score vs G1/S (z-score of summed log2 fold changes over temperatures); higher = more thermally stable than in G1/S
HeLa Kyoto [2] = experiment: solubility change mitosis vs G1/S (difference of NP-40 vs SDS log2 ratios) (log2 ratio difference); higher = more soluble in mitosis
HeLa Kyoto [3] = experiment: solubility in G1/S (NP-40 vs SDS abundance) (log2 ratio); higher = more soluble; settings: cell cycle stage: G1/S
HeLa Kyoto [4] = experiment: melting temperature (median over replicates), in situ; higher = more thermally stable
[5] = cell cycle stage: early G1 (4.5 h after nocodazole release)
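Throughout, for melting temperature (median over replicates), in situ: HeLa Kyoto cells synchronized by double thymidine or nocodazole block, proteins quantified by TMT10plex mass spectrometry, three independent biological replicates.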
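Throughout, for solubility change mitosis vs G1/S (difference of NP-40 vs SDS log2 ratios): synchronized HeLa Kyoto cells (double thymidine block for G1/S, nocodazole release for mitosis), protein amounts in NP-40 versus SDS lysates quantified by mass spectrometry, three biological replicates.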
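Throughout, for solubility in G1/S (NP-40 vs SDS abundance): HeLa Kyoto cells arrested at G1/S by double thymidine block, proteins quantified by TMT10plex mass spectrometry in mild NP-40 versus SDS extracts, three biological replicates.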
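Throughout, for thermal stability score vs G1/S (z-score of summed log2 fold changes over temperatures): synchronized HeLa Kyoto cells, proteins quantified by TMT10plex mass spectrometry, three biological replicates, mitosis taken 0.5 h after nocodazole release, G1/S directly after double thymidine block.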

Sequence: MAAMAPGGSGSGGGVNPFLSDSDEDDDEVAATEERRAVLRLGAGSGLDPGSAGSLSPQDPVALGSSARPGLPGEASAAAVALGGTGETPARLSIDAIAAQLLRDQYLLTALELHTELLESGRELPRLRDYFSNPGNFERQSGTPPGMGAPGVPGAAGVGGAGGREPSTASGGGQLNRAGSISTLDSLDFARYSDDGNRETDEKVAVLEFELRKAKETIQALRANLTKAAEHEVPLQERKNYKSSPEIQEPIKPLEKRALNFLVNEFLLKNNYKLTSITFSDENDDQDFELWDDVGLNIPKPPDLLQLYRDFGNHQVTGKDLVDVASGVEEDELEALTPIISNLPPTLETPQPAENSMLVQKLEDKISLLNSEKWSLMEQIRRLKSEMDFLKNEHFAIPAVCDSVQPPLDQLPHKDSEDSGQHPDVNSSDKGKNTDIHLSISDEADSTIPKENSPNSFPRREREGMPPSSLSSKKTVHFDKPNRKLSPAFHQALLSFCRMSADSRLGYEVSRIADSEKSVMLMLGRCLPHIVPNVLLAKREELIPLILCTACLHPEPKERDQLLHILFNLIKRPDDEQRQMILTGCVAFARHVGPTRVEAELLPQCWEQINHKYPERRLLVAESCGALAPYLPKEIRSSLVLSMLQQMLMEDKADLVREAVIKSLGIIMGYIDDPDKYHQGFELLLSALGDPSERVVSATHQVFLPAYAAWTTELGNLQSHLILTLLNKIEKLLREGEHGLDEHKLHMYLSALQSLIPSLFALVLQNAPFSSKAKLHGEVPQIEVTRFPRPMSPLQDVSTIIGSREQLAVLLQLYDYQLEQEGTTGWESLLWVVNQLLPQLIEIVGKINVTSTACVHEFSRFFWRLCRTFGKIFTNTKVKPQFQEILRLSEENIDSSAGNGVLTKATVPIYATGVLTCYIQEEDRKLLVGFLEDVMTLLSLSHAPLDSLKASFVELGANPAYHELLLTVLWYGVVHTSALVRCTAARMFELTLRGMSEALVDKRVAPALVTLSSDPEFSVRIATIPAFGTIMETVIQRELLERVKMQLASFLEDPQYQDQHSLHTEIIKTFGRVGPNAEPRFRDEFVIPHLHKLALVNNLQIVDSKRLDIATHLFEAYSALSCCFISEDLMVNHFLPGLRCLRTDMEHLSPEHEVILSSMIKECEQKVENKTVQEPQGSMSIAASLVSEDTKTKFLNKMGQLTTSGAMLANVFQRKK [KIAA1468]
- thermal stability score (HeLa Kyoto [1]; [5]): -0.253
- thermal stability score (HeLa Kyoto [1]; cell cycle stage: mitosis): -0.932
- solubility change mitosis (log2) (HeLa Kyoto [2]): -0.171
- solubility in G1/S (log2) (HeLa Kyoto [3]): -0.0233
- melting temperature (HeLa Kyoto [4]; cell cycle stage: G1/S): 50.8 °C
- melting temperature (HeLa Kyoto [4]; cell cycle stage: mitosis): 51.1 °C

Sequence: MAAPALRLCHIAFHVPAGQPLARNLQRLFGFQPLASREVDGWRQLALRSGDAVFLVNEGAGSGEPLYGLDPRHAVPSATNLCFDVADAGAATRELAALGCSVPVPPVRVRDAQGAATYAVVSSPAGILSLTLLERAGYRGPFLPGFRPVSSAPGPGWVSRVDHLTLACTPGSSPTLLRWFHDCLGFCHLPLSPGEDPELGLEMTAGFGLGGLRLTALQAQPGSIVPTLVLAESLPGATTRQDQVEQFLARHKGPGLQHVGLYTPNIVEATEGVATAGGQFLAPPGAYYQQPGKERQIRAAGHEPHLLARQGILLDGDKGKFLLQVFTKSLFTEDTFFLELIQRQGATGFGQGNIRALWQSVQEQSARSQEA [HPDL]
- thermal stability score (HeLa Kyoto [1]; [5]): 1.41
- thermal stability score (HeLa Kyoto [1]; cell cycle stage: mitosis): 0.476
- solubility change mitosis (log2) (HeLa Kyoto [2]): -0.0348
- solubility in G1/S (log2) (HeLa Kyoto [3]): 0.23
- melting temperature (HeLa Kyoto [4]; cell cycle stage: G1/S): 53.9 °C
- melting temperature (HeLa Kyoto [4]; cell cycle stage: mitosis): 52.8 °C

Sequence: MAAPCEGQAFAVGVEKNWGAVVRSPEGTPQKIRQLIDEGIAPEEGGVDAKDTSATSQSVNGSPQAEQPSLESTSKEAFFSRVETFSSLKWAGKPFELSPLVCAKYGWVTVECDMLKCSSCQAFLCASLQPAFDFDRYKQRCAELKKALCTAHEKFCFWPDSPSPDRFGMLPLDEPAILVSEFLDRFQSLCHLDLQLPSLRPEDLKTMCLTEDKISLLLHLLEDELDHRTDERKTTIKLGSDIQVHVTACILSVCGWACSSSLESMQLSLITCSQCMRKVGLWGFQQIESSMTDLDASFGLTSSPIPGLEGRPERLPLVPESPRRMMTRSQDATFSPGSEQAEKSPGPIVSRTRSWDSSSPVDRPEPEAASPTTRTRPVTRSMGTGDTPGLEVPSSPLRKAKRARLCSSSSSDTSSRSFFDPTSQHRDWCPWVNITLGKESRENGGTEPDASAPAEPGWKAVLTILLAHKQSSQPAETDSMSLSEKSRKVFRIFRQWESLCSC [ZC3HC1]
- thermal stability score (HeLa Kyoto [1]; [5]): 0.508
- thermal stability score (HeLa Kyoto [1]; cell cycle stage: mitosis): 1.84
- solubility change mitosis (log2) (HeLa Kyoto [2]): -0.163
- solubility in G1/S (log2) (HeLa Kyoto [3]): 0.00532
- melting temperature (HeLa Kyoto [4]; cell cycle stage: G1/S): 49.3 °C
- melting temperature (HeLa Kyoto [4]; cell cycle stage: mitosis): 49.2 °C

Sequence: MAAPDLSTNLQEEATCAICLDYFTDPVMTDCGHNFCRECIRRCWGQPEGPYACPECRELSPQRNLRPNRPLAKMAEMARRLHPPSPVPQGVCPAHREPLAAFCGDELRLLCAACERSGEHWAHRVRPLQDAAEDLKAKLEKSLEHLRKQMQDALLFQAQADETCVLWQKMVESQRQNVLGEFERLRRLLAEEEQQLLQRLEEEELEVLPRLREGAAHLGQQSAHLAELIAELEGRCQLPALGLLQDIKDALRRVQDVKLQPPEVVPMELRTVCRVPGLVETLRRFRGDVTLDPDTANPELILSEDRRSVQRGDLRQALPDSPERFDPGPCVLGQERFTSGRHYWEVEVGDRTSWALGVCRENVNRKEKGELSAGNGFWILVFLGSYYNSSERALAPLRDPPRRVGIFLDYEAGHLSFYSATDGSLLFIFPEIPFSGTLRPLFSPLSSSPTPMTICRPKGGSGDTLAPQ [TRIM11]
- thermal stability score (HeLa Kyoto [1]; [5]): 0.605
- thermal stability score (HeLa Kyoto [1]; cell cycle stage: mitosis): 0.584
- solubility change mitosis (log2) (HeLa Kyoto [2]): -0.192
- solubility in G1/S (log2) (HeLa Kyoto [3]): 0.185
- melting temperature (HeLa Kyoto [4]; cell cycle stage: G1/S): 50.8 °C
- melting temperature (HeLa Kyoto [4]; cell cycle stage: mitosis): 49.4 °C

Sequence: MAAPEGSGLGEDARLDQETAQWLRWDKNSLTLEAVKRLIAEGNKEELRKCFGARMEFGTAGLRAAMGPGISRMNDLTIIQTTQGFCRYLEKQFSDLKQKGIVISFDARAHPSSGGSSRRFARLAATTFISQGIPVYLFSDITPTPFVPFTVSHLKLCAGIMITASHNPKQDNGYKVYWDNGAQIISPHDKGISQAIEENLEPWPQAWDDSLIDSSPLLHNPSASINNDYFEDLKKYCFHRSVNRETKVKFVHTSVHGVGHSFVQSAFKAFDLVPPEAVPEQKDPDPEFPTVKYPNPEEGKGVLTLSFALADKTKARIVLANDPDADRLAVAEKQDSGEWRVFSGNELGALLGWWLFTSWKEKNQDRSALKDTYMLSSTVSSKILRAIALKEGFHFEETLTGFKWMGNRAKQLIDQGKTVLFAFEEAIGYMCCPFVLDKDGVSAAVISAELASFLATKNLSLSQQLKAIYVEYGYHITKASYFICHDQETIKKLFENLRNYDGKNNYPKACGKFEISAIRDLTTGYDDSQPDKKAVLPTSKSSQMITFTFANGGVATMRTSGTEPKIKYYAELCAPPGNSDPEQLKKELNELVSAIEEHFFQPQKYNLQPKAD [PGM2]
- thermal stability score (HeLa Kyoto [1]; [5]): -0.0187
- thermal stability score (HeLa Kyoto [1]; cell cycle stage: mitosis): -1.07
- solubility change mitosis (log2) (HeLa Kyoto [2]): -0.112
- solubility in G1/S (log2) (HeLa Kyoto [3]): 0.169
- melting temperature (HeLa Kyoto [4]; cell cycle stage: G1/S): 59.1 °C
- melting temperature (HeLa Kyoto [4]; cell cycle stage: mitosis): 58.5 °C
